pKd: −log10 of the molar value.
System: Stf76 (Sulfolobus islandicus plasmid-virus pSSVx)
Test: ITC
Details: EMSA: 20 mM Tris-acetate pH 8.0, 50 mM K acetate, 10 mM Mg acetate, 1 mM DTT, 5% glycerol, 1 ug salmon sperm DNA, 50 C protein pre-incubation, binding 37 C …

GGAAACAGTATTAATAAAGTGTTAATCCTATTACCC (double strand) [probe A' (35 bp-site A)]
pKd: 7.40
